Measurements: patent publication US20070036793A1, “Methods for use of an lkb1/strad7mo25 complex” (priority 2003, published 2007)

Target: T1, N-terminal Flag epitope tagged wild type LKB1 (mouse, UniProt Q9WTK7 1-436)
T1 construct: not restated for the HeLa lines; also called Flag-LKB1; WT LKB1
T1 sequence: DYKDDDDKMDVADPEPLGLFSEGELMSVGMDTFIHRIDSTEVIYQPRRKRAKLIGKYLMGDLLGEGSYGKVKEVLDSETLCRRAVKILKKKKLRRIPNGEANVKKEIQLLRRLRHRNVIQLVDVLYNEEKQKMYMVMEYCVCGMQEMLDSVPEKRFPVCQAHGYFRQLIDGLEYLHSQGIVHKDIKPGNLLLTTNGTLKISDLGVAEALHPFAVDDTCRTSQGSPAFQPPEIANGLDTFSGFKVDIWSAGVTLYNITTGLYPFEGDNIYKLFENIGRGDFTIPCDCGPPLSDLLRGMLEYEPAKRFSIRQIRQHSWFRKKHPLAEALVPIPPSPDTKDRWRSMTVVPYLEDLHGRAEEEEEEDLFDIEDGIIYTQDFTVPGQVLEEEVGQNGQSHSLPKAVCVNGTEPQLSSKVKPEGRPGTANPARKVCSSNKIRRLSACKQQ
Assay: GST pull-down from co-transfected 293 cells
Experimental: FIG. 7. Binding of LKB1 to STRADα creates novel binding site(s) for MO25α. […] Similar results were obtained in 3 separate experiments.
Expression of GST-fusion proteins in 293 cells and affinity purification. 10-cm diameter dishes of 293 cells were transiently transfected with 3 to 10 μg of the pEBG-2T constructs using a modified calcium phosphate method (Alessi et al., 1996). 36 h post-transfection, the cells were lysed and the clarified lysates were incubated for 1 h on a rotating platform with glutathione-Sepharose (25 μl/dish of lysate) previously equilibrated in lysis Buffer. The beads were washed 4 times with lysis Buffer containing 150 mM NaCl and twice with Buffer A. For immunoblotting analysis, the beads were then resuspended in SDS sample Buffer after this step to give a final volume of slurry of 75 μl, and the samples immunoblotted as described above. For protein kinase assays and gel electrophoresis, the beads were washed a further twice with Buffer A containing 0.27 M sucrose and the proteins were eluted from the resin by incubation with the same buffer containing 20 mM of glutathione. The beads were then removed by filtration through a 0.44-μm filter and the eluate divided into aliquots and stored at −80° C.

B1: GST-STRADα lacking the C-terminal 88 residues (other, human)
chain: DYKDDDDKMSFLVSKPERIRRWVSEKFIVEGLRDLELFGEQPPGDTRRKTNDASSESIASFSKQEVMSSFLPEGGCYELLTVIGKGFEDLMTVNLARYKPTGEYVTVRRINLEACSNEMVTFLQGELHVSKLFNHPNIVPYRATFIADNELWVVTSFMAYGSAKDLICTHFMDGMNELAIAYILQGVLKALDYIHHMGYVHRSVKASHILISVDGKVYLSGLRSNLSMISHGQRQRVVHDFPKYSVKVLPWLSPEVLQQNLQGYDAKSDIYSVGITACELANGHVPFKDMPATQMLLEKLNGTVPCLLDTSTIPAEELTMSPSRSVANSGLSDSLTTSTPRPSNGDSPSHP
notes: not shown: glutathione S-transferase (GST) tag, N-terminal, pEBG-2T vector
binding result: no binding
